Data reported in patent publication US20110217237A1 (AbbVie / Abbott, published 2011).
Where a chain is given by its changes, count along the chain named. Where two headings read alike, the source gives them in different places. One block for each binder: values may come before it.

Assays:
[1] = biological target: T1, mouse DLL4 extracellular domain (mouse, UniProt Q9JI71 27-532); test: binding ELISA, DLL4 ECD
T1 construct: extracellular domain; also called muDLL4 ECD; murine DLL4

[2] = biological target: T2, human DLL4 extracellular domain (human, UniProt Q9NR61 27-529); test: binding ELISA, DLL4 ECD
T2 construct: purified recombinant ECD; biotin-labelled or 6xHis-tagged depending on the assay; also called huDLL4 ECD; hu DLL4 ECD
T2 sequence (Q9NR61 27-529 limits assumed): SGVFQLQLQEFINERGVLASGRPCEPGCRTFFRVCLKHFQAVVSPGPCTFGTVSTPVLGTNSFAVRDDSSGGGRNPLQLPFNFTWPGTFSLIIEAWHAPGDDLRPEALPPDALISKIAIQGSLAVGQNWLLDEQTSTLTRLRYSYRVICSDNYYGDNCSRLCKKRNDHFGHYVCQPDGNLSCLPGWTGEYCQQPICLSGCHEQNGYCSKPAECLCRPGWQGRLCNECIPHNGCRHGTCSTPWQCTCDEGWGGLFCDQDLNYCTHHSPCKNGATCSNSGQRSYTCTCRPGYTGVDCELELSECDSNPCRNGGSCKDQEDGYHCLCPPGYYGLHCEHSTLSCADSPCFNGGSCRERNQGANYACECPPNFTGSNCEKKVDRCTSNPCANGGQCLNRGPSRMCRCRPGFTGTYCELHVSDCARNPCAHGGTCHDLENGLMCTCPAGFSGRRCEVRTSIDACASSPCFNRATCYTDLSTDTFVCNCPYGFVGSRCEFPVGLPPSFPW

mouse DLL4 on cells [3] = biological target: T3, mouse DLL4 on cells (mouse, UniProt Q9JI71 27-686); test: FACS, DLL4 cells
T3 construct: whole, on cells; also called mouse DLL4-293G; mu DLL4 cells
T3 sequence (Q9JI71 27-686): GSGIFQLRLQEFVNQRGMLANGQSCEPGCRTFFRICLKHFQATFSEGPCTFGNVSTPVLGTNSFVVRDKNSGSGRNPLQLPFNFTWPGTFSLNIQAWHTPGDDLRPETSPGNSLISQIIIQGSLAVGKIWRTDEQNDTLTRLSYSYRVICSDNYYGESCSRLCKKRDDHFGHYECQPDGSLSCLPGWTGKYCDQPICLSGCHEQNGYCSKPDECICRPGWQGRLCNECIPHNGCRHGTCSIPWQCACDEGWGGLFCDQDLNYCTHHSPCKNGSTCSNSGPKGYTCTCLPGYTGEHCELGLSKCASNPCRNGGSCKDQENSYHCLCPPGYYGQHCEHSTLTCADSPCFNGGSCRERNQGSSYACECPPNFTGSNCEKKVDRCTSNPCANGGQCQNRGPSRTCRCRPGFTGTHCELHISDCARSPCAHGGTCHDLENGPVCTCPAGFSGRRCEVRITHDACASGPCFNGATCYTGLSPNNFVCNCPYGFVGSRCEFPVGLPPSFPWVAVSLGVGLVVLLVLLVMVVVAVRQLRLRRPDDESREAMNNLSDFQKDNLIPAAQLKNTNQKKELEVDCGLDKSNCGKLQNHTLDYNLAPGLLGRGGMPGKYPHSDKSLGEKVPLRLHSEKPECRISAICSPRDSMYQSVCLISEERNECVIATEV
Method: (§1) Stable cell lines overexpressing cell-surface DLL4 were harvested from tissue culture flasks, washed four times and resuspended in phosphate buffered saline (PBS) containing 1% bovine serum albumin and 1 mM CaCl₂ (FACS buffer). 1.5×10⁵ cells were incubated with antibodies at various concentrations in FACS buffer for 60 minutes on ice. […] Following an incubation on ice (4° C., 60 minutes), cells were washed three times and resuspended in FACS buffer. Fluorescence was measured using a Becton Dickinson FACSCalibur-HTS (Becton Dickinson, San Jose, Calif., US). Data were analyzed using Graphpad Prism software and EC₅₀ values were reported as the concentration of antibody to achieve 50% of maximal DLL4 antibodies binding to DLL4 expressing cells. […]

[4] = biological target: T4, human DLL4, full length, on cells (human, UniProt Q9NR61 27-685); test: FACS, DLL4 cells
T4 construct: also called huDLL4 cells; human DLL4-293G
T4 sequence (Q9NR61 27-685 limits assumed): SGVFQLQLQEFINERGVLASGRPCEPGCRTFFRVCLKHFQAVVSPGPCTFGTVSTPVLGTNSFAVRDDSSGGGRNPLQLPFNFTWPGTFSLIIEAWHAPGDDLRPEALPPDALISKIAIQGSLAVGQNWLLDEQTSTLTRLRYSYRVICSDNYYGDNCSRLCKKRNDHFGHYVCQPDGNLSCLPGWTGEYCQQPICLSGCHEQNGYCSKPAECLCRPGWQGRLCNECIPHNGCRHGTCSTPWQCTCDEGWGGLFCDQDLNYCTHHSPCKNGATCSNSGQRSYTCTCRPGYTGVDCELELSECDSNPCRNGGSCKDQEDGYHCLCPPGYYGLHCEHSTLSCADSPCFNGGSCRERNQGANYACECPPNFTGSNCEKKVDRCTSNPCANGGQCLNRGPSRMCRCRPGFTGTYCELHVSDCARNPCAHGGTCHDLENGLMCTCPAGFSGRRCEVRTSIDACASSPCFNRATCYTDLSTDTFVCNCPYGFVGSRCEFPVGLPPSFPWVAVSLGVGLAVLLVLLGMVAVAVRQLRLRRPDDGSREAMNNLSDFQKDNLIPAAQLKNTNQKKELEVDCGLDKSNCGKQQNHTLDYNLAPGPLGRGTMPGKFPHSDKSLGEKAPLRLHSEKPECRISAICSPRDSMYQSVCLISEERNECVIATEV
Method: as §1

[5] = biological target: T5, cynomolgus monkey DLL4 extracellular domain (cynomolgus monkey); test: SPR (Biacore)
T5 construct: extracellular domain; also called cynoDLL4 ECD; Cyno DLL4
Method: (§2) The BIACORE® surface plasmon resonance assay (Biacore, Inc., Piscataway, N.J., US) determines the affinity of antibodies with kinetic measurements of on-rate and off-rate constants. Binding of DLL4 antibodies to a purified recombinant DLL4 extracellular domain (ECD) was determined by surface plasmon resonance-based measurements with a Biacore® instrument (either a Biacore 2000, Biacore 3000, or Biacore T100; GE Healthcare, Piscataway, N.J., US) using running buffer HBS-EPB (10 mM HEPES [pH 7.4], 150 mM NaCl, 3 mM EDTA, 0.1 mg/ml BSA and 0.005% surfactant P20) at 25° C. For example, approximately 9000 RU of goat anti-human Fc specific polyclonal antibody (Thermo Fisher Scientific Inc., Rockford, Ill., US) diluted in 10 mM sodium acetate (pH 4.5) is directly immobilized across a CMS research grade biosensor chip using a standard amine coupling kit according to manufacturer's instructions and procedures at 25 μg/ml. Unreacted moieties on the biosensor surface were blocked with ethanolamine. For kinetic analysis, rate equations derived from the 1:1 Langmuir binding model were fitted simultaneously to multiple antigen injections (using global fit analysis) with the use of Scrubber 2 (BioLogic Software), Biacore Biaevaluation 4.0.1 software or Biacore T100 Evaluation software. Purified antibodies were diluted in running buffer for capture across goat anti-human Fc reaction surfaces. Antibodies to be captured as a ligand (1 μg/ml) were injected over reaction matrices at a flow rate of 10 μl/min. During the assay, all measurements were referenced against the capture surface alone (i.e., with no captured anti-DLL4 antibody). […] The equilibrium dissociation constant KD (M) of the reaction between antibodies and the target antigen was then calculated from the kinetic rate constants by the following formula: KD=Koff/Kₒₙ. Binding was recorded as a function of time and kinetic rate constants were calculated.

[6] = biological target: T2, human DLL4 extracellular domain; test: SPR (Biacore)
Method: as §2

[7] = biological target: T1, mouse DLL4 extracellular domain; test: SPR (Biacore)
Method: as §2

mouse DLL4 on cells [8] = biological target: T3, mouse DLL4 on cells; test: FACS, DLL4 cells; remark: listed apart in the source
[9] = biological target: T4, human DLL4, full length, on cells; test: FACS, DLL4 cells; remark: listed apart in the source
[10] = biological target: T4, human DLL4, full length, on cells; test: competition FACS: huNotch-1 to DLL4 cells
Method: (§3) Notch blocking assay: Briefly, stable cell lines overexpressing cell-surface DLL4 were harvested from tissue culture flasks and re-suspended in phosphate buffered saline (PBS) containing 1% bovine serum albumin and 1 mM CaCl₂ (FACS buffer). HEK293G-DLL4 cells were dispensed into 96-well plate (v-bottom) at 1.5×10⁵ cells/well in FACS buffer. After spinning down cells and discarding the supernatant, 50 μL of purified IgG with appropriate dilution were added to each well, and incubated on ice at 4° C. for 60 minutes, followed by addition of 50 μL/well of Notch1-biotin at 0.2 μg/mL for human DLL4-293G or 2.0 μg/mL for mouse DLL4-293G (1.0 or 0.1 μg/mL final) for an additional 1 hour incubation ice at 4° C. After washing the cells two times with FACS buffer, 50 μL of R-phycoerythrin-conjugated streptavidin (1:150 dilution in FACS buffer) (Jackson ImmunoResearch, West Grove, Pa., Cat.#016-110-084) were added. Following an incubation on ice (4° C., 60 minutes), cells were washed three times and resuspended in FACS buffer. Fluorescence was measured using a Becton Dickinson FACSCalibur-HTS (Becton Dickinson, San Jose, Calif.). Data were analyzed using Graphpad Prism software, and IC₅₀ values were reported as the concentration of antibody to achieve 50% reduction of Notch1 bound to DLL4 expressing cells.

mouse DLL4 on cells [11] = biological target: T3, mouse DLL4 on cells; test: competition FACS: huNotch-1 to DLL4 cells
Method: as §3

[12] = biological target: T4, human DLL4, full length, on cells; test: cell-based or functional assay
[13] = biological target: T4, human DLL4, full length, on cells; test: competition FACS: huNotch-1-biotin to DLL4 cells
Method: as §3, with “cells. […]” for “cells.”

[14] = biological target: T6, rat DLL4 extracellular domain (rat, UniProt D3ZHH1 28-530); test: SPR (Biacore)
T6 construct: extracellular domain; also called ratDLL4 ECD
T6 sequence (D3ZHH1 28-530): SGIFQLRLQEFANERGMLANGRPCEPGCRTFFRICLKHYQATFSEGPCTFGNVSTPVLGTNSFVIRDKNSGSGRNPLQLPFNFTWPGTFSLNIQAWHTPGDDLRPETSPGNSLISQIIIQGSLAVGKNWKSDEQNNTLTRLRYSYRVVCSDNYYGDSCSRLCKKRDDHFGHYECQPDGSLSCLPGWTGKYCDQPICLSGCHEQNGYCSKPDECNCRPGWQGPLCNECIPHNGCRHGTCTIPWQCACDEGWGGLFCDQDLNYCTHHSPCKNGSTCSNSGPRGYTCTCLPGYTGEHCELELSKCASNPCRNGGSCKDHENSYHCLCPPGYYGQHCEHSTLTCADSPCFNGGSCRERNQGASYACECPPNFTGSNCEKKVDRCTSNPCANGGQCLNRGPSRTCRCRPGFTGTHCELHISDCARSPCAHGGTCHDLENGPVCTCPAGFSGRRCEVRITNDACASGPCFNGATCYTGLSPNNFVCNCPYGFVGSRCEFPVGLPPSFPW
Method: as §2

mouse DLL4 on cells [15] = biological target: T3, mouse DLL4 on cells; test: competition FACS: huNotch-1-biotin to DLL4 cells
Method: as §3, with “cells. […]” for “cells.”

T1 sequence (Q9JI71 27-532): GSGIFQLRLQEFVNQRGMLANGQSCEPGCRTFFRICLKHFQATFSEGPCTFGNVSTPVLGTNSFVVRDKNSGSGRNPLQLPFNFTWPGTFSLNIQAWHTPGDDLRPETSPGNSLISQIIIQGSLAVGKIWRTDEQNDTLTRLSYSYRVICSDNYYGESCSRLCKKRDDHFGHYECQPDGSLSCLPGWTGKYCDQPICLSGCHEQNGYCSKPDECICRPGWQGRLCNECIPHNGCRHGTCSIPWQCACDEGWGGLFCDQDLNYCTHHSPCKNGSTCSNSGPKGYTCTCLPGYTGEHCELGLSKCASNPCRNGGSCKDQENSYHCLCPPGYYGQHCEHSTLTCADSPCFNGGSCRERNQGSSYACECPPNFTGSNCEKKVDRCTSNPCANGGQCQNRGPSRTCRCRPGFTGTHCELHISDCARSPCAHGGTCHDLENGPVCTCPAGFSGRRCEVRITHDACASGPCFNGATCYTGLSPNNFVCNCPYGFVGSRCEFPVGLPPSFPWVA

- EC50 [1]: 0.15 nM
- EC50 [2]: 0.08 nM
- EC50 (mouse DLL4 on cells [3]): 0.8 nM
- EC50 [4]: 3.1 nM
- Kd [5]: 0.03 nM
- koff [5]: 6.3e-06 s⁻¹
- kon [5]: 220000 M⁻¹ s⁻¹
- Kd [6]: 0.03 nM
- koff [6]: 7e-06 s⁻¹
- kon [6]: 280000 M⁻¹ s⁻¹
- Kd [7]: 88 nM
- koff [7]: 0.0041 s⁻¹
- kon [7]: 48000 M⁻¹ s⁻¹
B1: 32C7 rat anti-DLL4 monoclonal antibody (antibody, rat IgG2a, V domains shown)
VH: EVQLVESGGGLVQPGRSLKLSCLASGFPFSSVWMTWIRQAPGKGLEWIATITNSGASTYYSASVKGRFTISRDNVKSTLYLQMTSLGSEDTATYYCTRVGTSFDYWGQGVMVTVSS
VL: DIQMTQSPASLSASLGETVTIECRASDDIYNGLAWFQQKPGKSPQLLIYDANTLHTGVPSRFSGSGSGTQFSLKINSLQSEDVASYFCQQFYDYPPYTFGAGTKLELKR
notes: rat IgG2a/k hybridoma mAb; also called MC10-32C7.5A4

- EC50 (mouse DLL4 on cells [8]): 4.11 nM
- EC50 [9]: 3.71 nM
B2: 32C7 chimeric antibody (antibody, human IgG1, V domains shown)
VH: B1 VH
VL: B1 VL
notes: also called Chimera of 32C7

- IC50 [10]: 1.44 nM
- EC50 [9]: 1.47 nM
B3: 38H12 chimeric antibody (antibody, human IgG1, V domains shown)
VH: EVQLVESGGGLVQPGRSLKLSCAASGFTFSNYGMYWIRQAPTKGLQWVAFISHGGGITYYRDSVKGRFTISRDNAKSTLYLQMDSLRSEDTATYHCAALNWELGIDYWGQGVMVTVSS
VL: DIQMTQSPASLSASLGETISIECRASEDIYSNLAWYQKKSGKSPQLLIYAANRLQDGVPSRFSGSGSGTQYSLKISGMQPEDEGDYFCLQGSKFPLTFGSGTKLEIKR
notes: also called Chimera of 38H12

- IC50 (mouse DLL4 on cells [11]): 4.39 nM
- IC50 [10]: 5.95 nM
- EC50 (mouse DLL4 on cells [8]): 0.99 nM
- EC50 [9]: 2.32 nM
B4: 37D10 chimeric antibody (antibody, human IgG1, V domains shown)
VH: AVQLVESGGGLVQPKESLKISCAASGFTFSNAAMYWVRLAPGKGLEWVARIRTKPNNYATYYAESVKGRFTISRDDSKSMVYVQMDNLKTEDTAMYYCTAAPWRDSYAHVYWGQGVMVTVSS
VL: DIQMTQSPPVLSASVGDRVTLSCKASQNIHKNLDWYQQKHGDAPKLLIYYTDHLQTGVPSRFSGSGSATDYTLTISSLQPEDVATYYCYQYNGGPFTFGSGTKLEIKR
notes: also called Chimera of 37D10

- Notch activation Inhibition (IC50, nM), huDLL4 cell/Notch reporter cells [12]: 6.1 nM
- EC50 (mouse DLL4 on cells [3]): > 50 nM
- EC50 [4]: 8.6 nM
- Kd [5]: 10.5 nM
- koff [5]: 0.00041 s⁻¹
- kon [5]: 39000 M⁻¹ s⁻¹
- Kd [6]: 7.2 nM
- koff [6]: 0.00039 s⁻¹
- kon [6]: 54000 M⁻¹ s⁻¹
- IC50 [13]: 4.2 nM
- binding result [7]: no binding
- binding result [14]: no binding
B5: 14G1 rat anti-DLL4 monoclonal antibody (antibody, rat IgG2a, V domains shown)
VH: EVQLQQSGAELAKPGSSVKISCKASGYTFTNYDISWIKQTNGQGLEYLGYINTGSGGIYSNEKFKGKATLTVDKSSNTAFMQLSSLTPEDTAVYYCVREGNNFDHWGQGVKVTVSS
VL: DTVMTQSPASMSTSVGERVTVNCKASQSVGTIVAWFQQKPGQSPKRLIYLATYRHTGVPDRFIGSGFGRDFTLTISNVEAEDLAVYYCLQYGSRPFTFGAGTKLEIKR
notes: rat IgG2a/K hybridoma mAb; also called MC13-14G1.1B4

- IC50 [10]: 4.11 nM
- EC50 [9]: 0.994 nM
B6: 14G1 chimeric antibody (antibody, human IgG1, V domains shown)
VH: B5 VH
VL: B5 VL
notes: also called Chimera of 14G1

- Notch activation Inhibition (IC50, nM), huDLL4 cell/Notch reporter cells [12]: 3.2 nM
- EC50 (mouse DLL4 on cells [3]): 1.6 nM
- EC50 [4]: 15 nM
- Kd [5]: 14.9 nM
- koff [5]: 0.00083 s⁻¹
- kon [5]: 56000 M⁻¹ s⁻¹
- Kd [6]: 9.2 nM
- koff [6]: 0.001 s⁻¹
- kon [6]: 110000 M⁻¹ s⁻¹
- IC50 (mouse DLL4 on cells [15]): 1.5 nM
- IC50 [13]: 25 nM
- Kd [7]: 0.7 nM
- koff [7]: 5.1e-05 s⁻¹
- kon [7]: 74000 M⁻¹ s⁻¹
- binding result [14]: no binding
B7: 15D6 rat anti-DLL4 monoclonal antibody (antibody, rat IgG2a, V domains shown)
VH: EVQLQQSGPELAKPGSSVKISCKASGYTFTSSYISWIKQTTGQGLEYIGYINTGSGGTDYNEKFKDKATLTVDKSSRTVFMQLSSLTPGDSAVYYCAKSILLGSTYYLDYWGQGVMVTVSS
VL: DTVLTQSPALAVSLGQRVTISCKASRSLSSPMYSYIYWYQQKLGQQPRLLIYRASTLASGVPARFSGSGSGTDFTLNIDPVEADDIATYFCQQSWSDPFTFGSGTKLEIKR
notes: rat IgG2a/K hybridoma mAb; also called MC13-15D6.1G7

- IC50 (mouse DLL4 on cells [11]): 1.39 nM
- IC50 [10]: 4.03 nM
- EC50 (mouse DLL4 on cells [8]): 2.14 nM
- EC50 [9]: 1.61 nM
B8: 14A11 chimeric antibody (antibody, human IgG1, V domains shown)
VH: B7 VH with S31N, I48V, T58A, D66G, V79A, Y106C, L108F, M116L
VL: B7 VL with D1N, L28V, L43P, R48K
notes: also called Chimera of 14A11
